Test results published in patent US20240116985A1 (published 2024).
Starred links: 1 amine or outer side, 2 acyl side, 3 side chain; linkers in the order of their positions; H or OH if unused. Positions of bridges follow the written chain, without caps; N, C: chain ends. Non-standard residues stand in square brackets, D forms with d. Primed or numbered codes have the meaning given here. PyrS2″ = (S)-3-amino-1-((pent-4-en-1-yloxy)carbonyl)pyrrolidine-3-carboxylic acid (stapling residue), C=CCCCOC(=O)N1CC[C@@](N[*:1])(C(=O)[*:2])C1; PyrS3″ = (S)-3-amino-1-((hex-5-en-1-yloxy)carbonyl)pyrrolidine-3-carboxylic acid (stapling residue), C=CCCCCOC(=O)N1CC[C@@](N[*:1])(C(=O)[*:2])C1; (TfePpz)GlnR = (S)-2-amino-5-oxo-5-(4-(2,2,2-trifluoroethyl)piperazin-1-yl)pentanoic acid, O=C(CC[C@H](N[*:1])C(=O)[*:2])N1CCN(CC(F)(F)F)CC1; B5(4) = 2,2-bis(4-pentenyl)glycine = 2-amino-2-(pent-4-en-1-yl)hept-6-enoic acid (stitching residue), C=CCCCC(CCCC=C)(N[*:1])C(=O)[*:2]; B5(21) = 2-amino-2-(pent-4-en-1-yl)hept-6-enoic acid, bis(4-pentenyl)glycine (stitching residue), C=CCCCC(CCCC=C)(N[*:1])C(=O)[*:2]; B5(6) = 2-amino-2-(pent-4-en-1-yl)hept-6-enoic acid (bis(4-pentenyl)glycine), stitching residue, C=CCCCC(CCCC=C)(N[*:1])C(=O)[*:2]; TfeGA = (S)-2-amino-3-((carboxymethyl)(2,2,2-trifluoroethyl)amino)propanoic acid, O=C([C@H](CN(CC(=O)[*:3])CC(F)(F)F)N[*:1])[*:2]; B5(19) = 2-amino-2-(pent-4-en-1-yl)hept-6-enoic acid (bis(4-pentenyl)glycine), C=CCCCC(CCCC=C)(N[*:1])C(=O)[*:2]; Phe(2-NO2) = N[C@@H](Cc1ccccc1[N+](=O)[O-])C(=O)O; Phe(3-CONH2) = NC(=O)c1cccc(C[C@H](N)C(=O)O)c1; Phe(3-COOH) = N[C@@H](Cc1cccc(C(=O)O)c1)C(=O)O; Phe(3-F) = N[C@@H](Cc1cccc(F)c1)C(=O)O; Phe(4-F) = N[C@@H](Cc1ccc(F)cc1)C(=O)O; Phe(2-F) = N[C@@H](Cc1ccccc1F)C(=O)O; Bta = N[C@@H](Cc1csc2ccccc12)C(=O)O; Lys(iPr) = CC(C)NCCCC[C@H](N)C(=O)O; αAllylPro = C=CC[C@@]1(C(=O)O)CCCN1; tBuAla = CC(C)(C)C[C@H](N)C(=O)O; 2Thi = N[C@@H](Cc1cccs1)C(=O)O; 3Thi = N[C@@H](Cc1ccsc1)C(=O)O; Cha = N[C@@H](CC1CCCCC1)C(=O)O; S8 = C=CCCCCCC[C@](C)(N)C(=O)O; PyrS2(4) = not defined here; hSer = N[C@@H](CCO)C(=O)O; Nle = CCCC[C@H](N)C(=O)O

T1: full-length beta-Catenin (Uniprot ID P35222) (Homo sapiens (Human), UniProt P35222 1-781)
T1 construct: also called bCat; B-Catenin
T1 sequence: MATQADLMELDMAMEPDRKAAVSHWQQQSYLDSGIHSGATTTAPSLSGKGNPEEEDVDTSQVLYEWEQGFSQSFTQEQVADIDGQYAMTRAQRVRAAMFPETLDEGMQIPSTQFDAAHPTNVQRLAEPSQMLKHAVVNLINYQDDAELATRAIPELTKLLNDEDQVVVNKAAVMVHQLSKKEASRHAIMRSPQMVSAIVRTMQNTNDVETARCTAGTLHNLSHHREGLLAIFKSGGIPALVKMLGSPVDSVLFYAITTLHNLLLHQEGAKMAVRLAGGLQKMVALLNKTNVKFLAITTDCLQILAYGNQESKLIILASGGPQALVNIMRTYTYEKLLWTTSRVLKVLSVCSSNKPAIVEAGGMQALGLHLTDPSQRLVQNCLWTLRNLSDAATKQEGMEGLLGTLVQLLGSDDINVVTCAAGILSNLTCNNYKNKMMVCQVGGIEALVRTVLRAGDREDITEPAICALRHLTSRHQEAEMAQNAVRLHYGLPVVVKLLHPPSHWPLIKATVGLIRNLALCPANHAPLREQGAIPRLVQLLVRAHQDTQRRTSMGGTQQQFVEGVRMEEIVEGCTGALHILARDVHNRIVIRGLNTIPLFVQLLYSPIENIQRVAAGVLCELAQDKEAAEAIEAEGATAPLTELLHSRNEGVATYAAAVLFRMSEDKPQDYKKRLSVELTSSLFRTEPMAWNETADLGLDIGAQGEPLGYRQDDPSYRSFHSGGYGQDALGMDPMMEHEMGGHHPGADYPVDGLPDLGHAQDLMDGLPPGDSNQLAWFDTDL

T2: B-cat-Halo (beta-catenin HaloTag construct transfected into HEK293 cells) (UniProt P35222 1-781)
T2 sequence (looked up): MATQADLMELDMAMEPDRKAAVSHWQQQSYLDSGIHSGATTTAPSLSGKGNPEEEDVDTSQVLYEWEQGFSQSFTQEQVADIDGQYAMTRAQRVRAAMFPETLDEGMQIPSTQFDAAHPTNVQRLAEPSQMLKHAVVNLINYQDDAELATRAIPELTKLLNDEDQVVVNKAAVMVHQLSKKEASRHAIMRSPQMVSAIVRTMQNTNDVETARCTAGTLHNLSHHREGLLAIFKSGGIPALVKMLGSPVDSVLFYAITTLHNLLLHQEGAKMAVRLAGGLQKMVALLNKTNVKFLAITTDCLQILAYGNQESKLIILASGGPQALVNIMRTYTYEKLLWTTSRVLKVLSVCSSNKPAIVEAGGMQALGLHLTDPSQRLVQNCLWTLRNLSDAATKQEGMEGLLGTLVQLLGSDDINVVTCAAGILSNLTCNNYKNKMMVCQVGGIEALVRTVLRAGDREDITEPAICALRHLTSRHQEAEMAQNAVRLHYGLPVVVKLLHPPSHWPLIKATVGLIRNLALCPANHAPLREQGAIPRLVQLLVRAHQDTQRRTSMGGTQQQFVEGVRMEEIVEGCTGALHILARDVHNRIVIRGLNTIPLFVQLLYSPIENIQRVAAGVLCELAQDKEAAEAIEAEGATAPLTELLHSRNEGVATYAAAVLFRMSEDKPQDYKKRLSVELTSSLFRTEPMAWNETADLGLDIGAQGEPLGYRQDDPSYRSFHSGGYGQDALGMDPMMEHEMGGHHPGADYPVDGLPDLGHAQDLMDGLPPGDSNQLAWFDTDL

B1: I-463 (peptide)
peptide: Ac-[αAllylPro]DA[B5(21)]DEAAFN[PyrS3″]F[Bta]Q-NH2
modifications: staple 1-4, 4-11; also: earlier-eluting HPLC staple isomer
notes: Stapled peptide; earlier-eluting HPLC peak (staple isomer composition)
B2: I-464 (peptide)
peptide: Ac-[αAllylPro]DA[B5(21)]DEAAFN[PyrS3″]F[Bta]Q-NH2
modifications: staple 1-4, 4-11; not fully specified; printed as Ac-PL3-Asp-Ala-B5-Asp-Glu-Ala-Ala-Phe-Asn-PyrS3-Phe-BztA-Gln-NH2
notes: Stapled peptide; later-eluting HPLC peak (staple isomer composition)
B3: I-469 (peptide)
peptide: Ac-[αAllylPro]DI[B5(6)]DDAAFN[S8]F[Bta]H-NH2
modifications: staple 1-4, 4-11; also: staple isomer composition: earlier-eluting HPLC peak
notes: as for B1
B4: I-467 (peptide)
peptide: Ac-[αAllylPro]DI[B5(6)]DDAAFN[S8]F[Bta]Q-NH2
modifications: staple 1-4, 4-11; also: staple isomer composition: earlier-eluting HPLC peak
notes: as for B1
B5: I-468 (peptide)
peptide: Ac-[αAllylPro]DI[B5(6)]DDAAFN[S8]F[Bta]Q-NH2
modifications: staple 1-4, 4-11; also: staple isomer composition: later-eluting HPLC peak
notes: as for B2
B6: I-1915 (peptide)
peptide: Ac-[αAllylPro]D[tBuAla][B5(4)]D[Phe(3-COOH)][Lys(iPr)]AFL[PyrS2(4)][3Thi][Bta]A-NH2
modifications: staple 1-4, 4-11; not fully specified; printed as Ac-PL3-Asp-Npg-B5-Asp-3COOHF-iPrLys-Ala-Phe-Leu-PyrS2-3Thi-BztA-Ala-NH2; reading uncertain
B7: I-1919 (peptide)
peptide: Ac-[αAllylPro]D[tBuAla][B5(4)]D[Phe(3-COOH)][Nle]AFL[PyrS2(4)][3Thi][Bta]A-NH2
modifications: staple 1-4, 4-11; not fully specified; printed as Ac-PL3-Asp-Npg-B5-Asp-3COOHF-nLeu-Ala-Phe-Leu-PyrS2-3Thi-BztA-Ala-NH2; reading uncertain
B8: I-1916 (peptide)
peptide: Ac-[αAllylPro]D[tBuAla][B5(4)]D[Phe(3-COOH)]HAFL[PyrS2(4)][3Thi][Bta]A-NH2
modifications: staple 1-4, 4-11; not fully specified; printed as Ac-PL3-Asp-Npg-B5-Asp-3COOHF-His-Ala-Phe-Leu-PyrS2-3Thi-BztA-Ala-NH2; reading uncertain

Molecular target: T1, full-length beta-Catenin (Uniprot ID …)
Test: fluorescence polarization competition; full-length beta-catenin, competitor 5FAM-TCF4(10-53) probe
Method in brief: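 Incubate 60 minutes at 20° C. away from light, then read polarization in duplicate. Fit to 1:1 binding with hill slope.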

Question: B1 was tested. Which IC50 did it give?
Answer: The IC50 was 92 nM.

Question: Which IC50 does the source give for Ac-[αAllylPro]DA[B5(21)]DEAA[Phe(2-F)]N[S8]F[Bta]Q-NH2 (staple 1-4, 4-11, Stapled peptide composition) [I-453] here?
Answer: The IC50 was 1550 nM.

Question: How did the IC50 turn out when Ac-[αAllylPro]DA[B5(21)]DEAA[2Thi]Q[S8][Phe(3-F)]WQ-NH2 (staple 1-4, 4-11, Stapled peptide composition) [I-450] was run?
Answer: Its IC50 is 3720 nM.

Question: Which IC50 does the source give for Ac-[αAllylPro]DA[B5(21)]DEAA[Phe(3-F)]N[S8]F[Bta]Q-NH2 (staple 1-4, 4-11, Stapled peptide composition) [I-454] here?
Answer: The IC50 was 125 nM.

Question: Which IC50 does the source give for Ac-[αAllylPro]DA[B5(21)]DEAAFN[S8][Phe(2-NO2)][Bta]Q-NH2 (staple 1-4, 4-11, Stapled peptide composition) [I-441] here?
Answer: The IC50 was 133 nM.

Question: Ac-[αAllylPro]DA[B5(21)]DEAA[Phe(4-F)]N[S8]F[Bta]Q-NH2 (staple 1-4, 4-11, Stapled peptide composition) [I-455] was tested. Which IC50 did it give?
Answer: Its IC50 is 83.5 nM.

Question: Which IC50 does the source give for B2 here?
Answer: Its IC50 is 57 nM.

Question: Which IC50 does the source give for B3 here?
Answer: The IC50 was 27 nM.

Question: For B4, which IC50 is on record?
Answer: The IC50 was 44 nM.

Question: B5 was tested. Which IC50 did it give?
Answer: Its IC50 is 27 nM.

Molecular target: T2, B-cat-Halo (beta-catenin HaloTag …)
Test: cell-based or functional assay

Question: With B6 as the binder, how does the “NanoBRET Abs IC50” value read?
Answer: The value was 20200 nM.

Question: For Ac-[αAllylPro]D[tBuAla][B5(19)]D[TfeGA]AAF[(TfePpz)GlnR][PyrS2″][3Thi][Bta]Q-NH2 (staple 1-4, 4-11) [I-1935], which “NanoBRET Abs IC50” value is on record?
Answer: Its value is 7100 nM.

Question: B7 was tested. Which “NanoBRET Abs IC50” value did it give?
Answer: Its value is 4700 nM.

Question: B8 was tested. Which “NanoBRET Abs IC50” value did it give?
Answer: Its value is 9200 nM.

Question: Which “NanoBRET Abs IC50” value does the source give for Ac-[αAllylPro]N[Cha][B5(19)]DQ[Lys(iPr)]AFN[PyrS2″][Phe(3-CONH2)][Bta][hSer]-NH2 (staple 1-4, 4-11) [I-1929] here?
Answer: The value was over 20000 nM.
